Read-outs that look alike come from different tables or passages of the source.
Key:
[1] = target: undigested bovine aggrecan (bovine) (UniProt P13608); test: cell-based or functional assay
[2] = target: undigested bovine aggrecan (bovine) (UniProt P13608); test: cell-based or functional assay; remark: listed apart in the source

Chain of undigested bovine aggrecan (bovine) (P13608 20-2364): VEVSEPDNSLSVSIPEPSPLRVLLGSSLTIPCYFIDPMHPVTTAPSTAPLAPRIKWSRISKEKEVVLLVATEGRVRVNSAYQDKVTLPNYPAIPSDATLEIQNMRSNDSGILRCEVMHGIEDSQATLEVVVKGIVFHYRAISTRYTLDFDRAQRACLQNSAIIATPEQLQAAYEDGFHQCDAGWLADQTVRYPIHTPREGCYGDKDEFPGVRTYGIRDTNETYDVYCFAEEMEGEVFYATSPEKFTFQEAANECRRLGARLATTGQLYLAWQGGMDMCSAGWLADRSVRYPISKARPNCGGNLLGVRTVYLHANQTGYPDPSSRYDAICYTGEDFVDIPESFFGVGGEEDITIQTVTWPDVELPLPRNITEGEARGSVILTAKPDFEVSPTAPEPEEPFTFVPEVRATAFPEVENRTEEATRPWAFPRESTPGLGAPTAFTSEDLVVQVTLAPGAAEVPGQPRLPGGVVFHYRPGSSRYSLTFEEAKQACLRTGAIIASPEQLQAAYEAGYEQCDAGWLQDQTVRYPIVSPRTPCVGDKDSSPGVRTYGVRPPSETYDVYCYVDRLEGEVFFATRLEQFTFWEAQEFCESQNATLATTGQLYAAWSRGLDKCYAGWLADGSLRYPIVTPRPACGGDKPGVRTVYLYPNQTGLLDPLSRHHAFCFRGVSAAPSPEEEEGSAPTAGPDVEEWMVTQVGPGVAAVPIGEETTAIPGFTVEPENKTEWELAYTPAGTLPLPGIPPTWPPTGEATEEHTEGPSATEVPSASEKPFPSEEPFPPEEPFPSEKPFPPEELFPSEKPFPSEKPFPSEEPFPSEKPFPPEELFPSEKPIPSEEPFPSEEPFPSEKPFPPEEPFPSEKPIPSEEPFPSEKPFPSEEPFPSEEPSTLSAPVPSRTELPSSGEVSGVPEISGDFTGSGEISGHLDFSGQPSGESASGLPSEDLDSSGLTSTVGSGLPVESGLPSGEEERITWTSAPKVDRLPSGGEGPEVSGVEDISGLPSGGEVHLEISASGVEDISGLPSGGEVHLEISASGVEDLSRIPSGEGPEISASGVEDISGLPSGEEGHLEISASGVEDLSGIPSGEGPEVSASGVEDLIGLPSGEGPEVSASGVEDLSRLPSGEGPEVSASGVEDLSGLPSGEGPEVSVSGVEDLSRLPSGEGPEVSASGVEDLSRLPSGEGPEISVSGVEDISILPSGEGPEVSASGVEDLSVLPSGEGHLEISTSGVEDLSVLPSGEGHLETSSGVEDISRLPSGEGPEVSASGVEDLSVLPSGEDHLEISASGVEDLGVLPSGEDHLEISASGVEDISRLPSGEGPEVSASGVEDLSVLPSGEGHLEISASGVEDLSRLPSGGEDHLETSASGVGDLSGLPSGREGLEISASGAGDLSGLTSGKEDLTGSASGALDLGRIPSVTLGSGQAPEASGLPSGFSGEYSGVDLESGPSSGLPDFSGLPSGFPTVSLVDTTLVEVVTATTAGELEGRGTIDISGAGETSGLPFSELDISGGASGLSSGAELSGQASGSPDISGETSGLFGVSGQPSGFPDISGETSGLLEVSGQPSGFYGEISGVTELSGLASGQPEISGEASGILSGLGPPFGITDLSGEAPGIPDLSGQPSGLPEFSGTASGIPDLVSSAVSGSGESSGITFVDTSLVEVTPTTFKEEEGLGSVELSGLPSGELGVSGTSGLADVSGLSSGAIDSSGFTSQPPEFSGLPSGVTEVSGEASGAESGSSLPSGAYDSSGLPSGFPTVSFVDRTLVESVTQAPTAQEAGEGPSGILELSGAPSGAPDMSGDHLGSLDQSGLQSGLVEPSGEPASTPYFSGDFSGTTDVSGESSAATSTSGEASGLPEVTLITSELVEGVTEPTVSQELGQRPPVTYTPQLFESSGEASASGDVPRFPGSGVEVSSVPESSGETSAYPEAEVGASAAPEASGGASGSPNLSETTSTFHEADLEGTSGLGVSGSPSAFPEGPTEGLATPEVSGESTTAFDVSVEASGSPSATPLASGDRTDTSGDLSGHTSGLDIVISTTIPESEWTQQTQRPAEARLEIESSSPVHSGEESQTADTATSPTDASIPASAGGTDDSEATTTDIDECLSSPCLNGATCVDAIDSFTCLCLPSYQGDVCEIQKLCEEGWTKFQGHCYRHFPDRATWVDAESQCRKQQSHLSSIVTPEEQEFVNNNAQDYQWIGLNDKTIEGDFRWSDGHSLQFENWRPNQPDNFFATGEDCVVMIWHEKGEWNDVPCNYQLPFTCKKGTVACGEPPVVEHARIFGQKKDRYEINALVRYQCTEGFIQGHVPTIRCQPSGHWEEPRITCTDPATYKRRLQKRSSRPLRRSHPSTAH

amount of enzyme needed for 45% inhibition in the competitive inhibition ELISA for aggrecanase activity [1]: 0.0135 pM
amount of enzyme needed for 45% inhibition in the competitive inhibition ELISA for aggrecanase activity [2]: 1 ng
Substance: recombinant ADAMTS-4 (from UniProt O75173 213-694) (enzyme)

Reference: patent US20050260733A1, “Proteases and uses thereof” (WYETH, priority 2004, published 2005)
